The record followed here is patent US20170362329A1 (PELICAN THERAPEUTICS, published 2017).

Like-named read-outs stand apart in the source and are kept apart here.

Assay [1] deals with human TNFRSF25 (expressed on P815 cells) (human) (UniProt Q93038). Description: cell-based or functional assay.
Assay [2] concerns the target human TNFRSF25 (expressed on P815 cells) (human), Q93038. Description: cell-based or functional assay.
Another assay concerns the target T1, WBP330.hProl.ECD.hF (human, UniProt Q93038 25-199).
T1 construct: extracellular domain; also called human TNFRSF25 (SPR ligand)
T1 sequence (looked up): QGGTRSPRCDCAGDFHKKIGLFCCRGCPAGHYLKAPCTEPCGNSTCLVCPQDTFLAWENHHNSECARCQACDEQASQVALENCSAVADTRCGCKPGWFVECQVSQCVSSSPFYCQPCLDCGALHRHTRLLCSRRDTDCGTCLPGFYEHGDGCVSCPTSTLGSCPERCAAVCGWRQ
Description: SPR (ProteOn), TNFRSF25 ECD fusion as ligand, antibody as analyte, bivalent analyte model. On the procedure: Affinity of the indicated humanized TNFRSF25 antibodies was determined by surface plasmon resonance (SPR) using the ProteOn method (FIG. 7 and TABLE 3).

Assay [3] deals with human TNFRSF25 (expressed on P815 cells) (human) (UniProt Q93038). Description: cell-based or functional assay. This is another data set of the same source.
Assay [4] has the same target. Description: flow cytometry on P815 cells expressing human TNFRSF25. (In flow cytometry, cells or beads pass a laser one at a time.)
For assay [5] the target is unchanged. In words: flow cytometry on P815 cells expressing human TNFRSF25 (mean fluorescence intensity).
The next assay deals with T2, human TNFRSF25-Fc (human, UniProt Q93038 25-199, limits assumed).
T2 construct: also called human TNFRSF25 fusion protein; not shown: Fc part
T2 sequence (looked up): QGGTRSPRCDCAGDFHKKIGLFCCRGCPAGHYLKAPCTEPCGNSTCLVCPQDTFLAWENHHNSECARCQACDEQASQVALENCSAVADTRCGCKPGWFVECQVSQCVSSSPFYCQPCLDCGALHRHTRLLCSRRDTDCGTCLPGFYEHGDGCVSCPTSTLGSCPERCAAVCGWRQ
Description: ELISA, binding of PTX-25 to human TNFRSF25-Fc, OD 450 nm.

In general, koff refers to a measure of how fast the partners let go of each other. The kon is a measure of how fast the partners come together. High values mean faster complex formation, low ones slower complex formation. One may read the EC50 (read off the curve) as the concentration that produces a half-maximal response. The low end stands for a more potent agent, the high end for a less potent agent. In general, IC50 refers to the concentration that inhibits the measured activity by half. High values mean lower potency, low ones higher potency.

In turn, “hTL1A-hFc chimera (from UniProt O95150 72-251) (Fc fusion)” gave an EC50 of induced caspase activity in assay [1] of 282 ng/mL.

B1: WBP330.cAb1.hIgG1 (35783) (antibody, V domains shown)
VH: EVQLVESGGGLSQPGNSLQLSCEASGFTFSNHDLNWVRQAPGKGLEWVAYISSASGLISYADAVRGRFTISRDNAKNSLFLQMNNLKSEDTAMYYCARDPPYSGLYALDFWGQGTQVTVSS
VL: QPVLTQSPSASASLSGSVKLTCTLSSELSSYTIVWYQQRPDKAPKYVMYLKSDGSHSKGDGIPDRFSGSSSGAHRYLSISNVQSEDDATYFCGAGYTLAGQYGWVFGSGTKVTVL
notes: also called cAb1 (35783); chimeric antibody
In assay [2], B1 registered an EC50 (nM), caspase activation in P815 cells expressing human TNFRSF25 of 71.4 nM and an EC50 of induced caspase activity of 121 ng/mL. In the assay with WBP330.hProl.ECD.hF, this molecule displayed a Kd of 58.1 nM, a koff of 0.00576 s⁻¹ and a kon of 99000 M⁻¹ s⁻¹.

B2: WBP330BMK1 (antibody, V domains shown)
VH: EVQLVESGGGLSQPGNSLQLSCEASGFTFSNHDLNWVRQAPGKGLEWVAYISSASGLISYADAVRGRFTISRDNAKNSLFLQMNNLKSEDTAMYYCARDPPYSGLYALDFWGQGTQVTVSS
VL: QPVLTQSPSASASLSGSVKLTCTLSSELSSYTIVWYQQRPDKAPKYVMYLKSDGSHSKGDGIPDRFSGSSSGAHRYLSISNVQSEDDATYFCGAGYTLAGQYGWVFGSGTKVTVL
As to B2, in assay [3], the EC50 (nM), caspase activation in P815 cells expressing human TNFRSF25 came to 19.6 nM and the EC50 of induced caspase activity is 19.2 ng/mL. Besides, the Kd in assay [4] is 73.5 nM. Besides, in assay [5], the Bmax is 246. In the assay with WBP330.hProl.ECD.hF, the Kd was found to be 254 nM, the koff came out at 0.0252 s⁻¹ and the kon was determined as 99000 M⁻¹ s⁻¹.

B3: PTX-25 (human TNFRSF25-specific monoclonal antibody, pre-humanized parental) (antibody, V domains shown)
VH: EVQLVESGGGLSQPGNSLQLSCEASGFTFSNHDLNWVRQAPGKGLEWVAYISSASGLISYADAVRGRFTISRDNAKNSLFLQMNNLKSEDTAMYYCARDPPYSGLYALDFWGQGTQVTVSS
VL: QPVLTQSPSASASLSGSVKLTCTLSSELSSYTIVWYQQRPDKAPKYVMYLKSDGSHSKGDGIPDRFSGSSSGAHRYLSISNVQSEDDATYFCGAGYTLAGQYGWVFGSGTKVTVL
notes: also called Pre-humanized Parental PTX-25; human TNFRSF25-specific mAb
As for B3, in the assay with human TNFRSF25-Fc, the “EC50 (read off the curve)” value is about 0.04 µg/mL and the IC50 is 5.17 nM.
